Experimental data taken from US20250011363A1, “OPTIMIZED SHORTENED PEPTIDE THAT BINDS TO ACETYLCHOLINE RECEPTOR, AND USE THEREOF” (SKINMED CO., LTD., priority 2021, published 2025).

How the values were obtained:
acetylcholine receptor [1] = experiment: SPR, acetylcholine receptor immobilized on chip, peptide at 10 uM
[2] = molecular target: acetylcholine receptor protein; experiment: SPR, affinity against the reference Synake
[3] = molecular target: acetylcholine receptor protein; experiment: SPR, receptor on CM5 chip, method of Example 1 (FIG. 3)
[4] = molecular target: acetylcholine receptor protein; experiment: SPR (Biacore 3000), receptor immobilised on CM5 chip, peptide in solution; given as 'affinity'
acetylcholine receptor [5] = experiment: SPR, AchR immobilized on chip
acetylcholine receptor [6] = experiment: SPR, peptide at 10 uM on immobilised AchR
[7] = molecular target: acetylcholine receptor protein; experiment: SPR, concentration series (FIG. 9); given as 'affinity'

B1: 5mer-600 (peptide)
peptide: KLYSK
With B1 the Binding affinity (RU) (acetylcholine receptor [1]) was 64 RU.

B2: 5mer-299 (peptide)
peptide: KGRRK
With B2 the Binding affinity (RU) (acetylcholine receptor [1]) was 62 RU.

B3: 5mer-599 (peptide)
peptide: KWVSR
Work on B3 yielded a Binding affinity (RU) (acetylcholine receptor [1]) of 61 RU.

B4: Espep2-6mer (peptide)
peptide: RKSLLR
B4 showed a fold higher affinity compared to Synake [2] of 40 times, an RU value [3] of 177 RU and a Kd [4] of 57 µM.

B5: 6mer-1-43 (peptide)
peptide: RKRIRR
Binder B5 has a Binding affinity (RU) (acetylcholine receptor [5]) of 548 RU, a Binding affinity (RU) (acetylcholine receptor [6]) of 548 RU and a Kd [7] of 0.609 µM.

B6: 5mer-300 (peptide)
peptide: RQYRK
B6 gave a Binding affinity (RU) (acetylcholine receptor [1]) of 81 RU.
